Experimental data taken from the RNAGym collection of RNA variant scans (doi:10.1073/pnas.2313332121).

B1: TPR t1 (parent)
chain: GACCAAUCUGCCCUCAGAGCUCGAGAACAUCUUCGGAUGCAGAGGAGGCAGGCUUCGGUGGCGCGAUAGCGCCAACGUCCUCAACCUCCAAUGCAUCCCACCACAUGAUGAUGCCUGAAGAGCCUUGGUUUUUUG

Variants of: B1
Assay: polymerase ribozyme fitness, log enrichment relative to wild type (log ratio); higher = more active; in vitro selection for triplet polymerase activity
How it was run: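 PCR was used to build mutant libraries for each subunit of a heterodimeric triplet polymerase ribozyme, which were then transcribed. A single in vitro selection round, in triplicate, used a frozen incubation at −7 °C and recovered extended constructs by gel excision, streptavidin beads and RT-PCR. Fitness is the logarithm of genotype enrichment relative to wild-type enrichment, averaged over replicates with inverse-variance weights. The logarithm is base 2, and after Illumina sequencing only genotypes with ≥10 input reads and ≥1 read per output were kept.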

Variant	polymerase ribozyme fitness (log ratio)
C3A G110C C123G	-4.82
A2C G47U U78C U112C	-1.88
A2C U116A	-4.2
A2G C12G C20A G69U U78C U130C	-1.63
A2G C99U C101A A121G C124G	-2.5
A2U C8U G36U C80U G127C U130C	-3.03
C3A G48U U125A	-2.7
C3A C97U	-2.33
A2U C8A G19U A24U A26U U33C A108G A111C A121G	-7.47
A2C C4A G44A C49U G63A	-3.51
A2U C64U A83G A111C	-4.94
A2G A16C C89A G120C U133A G135C	-2.39
C3G C20U A46G C124U	-2.93
A2U C115A	-2.22
A2G G51U C114U	-6.82
C3U A27U G52U C72U C76U C85U U116G C124U U129C	-7.12
C3U C12A	-0.942
A2G U59C C85U C124A	0.474
A2U A16U U32A A41C G69U C89A	-7.42
A2C G45A C53A	-1.45
C3A U92A C114U	-4.76

Variant	polymerase ribozyme fitness (log ratio)
A2G C73G C85A G113A G120C	-3.08
A2G G51A	-2.94
A2U C56A U106A C115G	-4.51
C3G G93A	-2.07
A2G A74C	-0.276
A2G C8U A83G	-0.602
A2G A29G	-1.34
A2C C76U	-2.06
A2U C40G C53G C72G	-2.9
A2G G48U C53G C86U C98A C123G C124A	-6.57
A2C A16G C49A U55G G120C C124U	-1.14
A2C U78C	-1.64
C3U A37C C53G U55C	-1.11
A2U G63U	-4.25
C3U C11U A37U C53U	-0.631
A2U A37U G48A C53U G60A C85A	-3.47
A2U A46G C73U U81C	-3.83
A2U C11G G122A	-0.62
A2U C11U C22A A41C G71U C82A C88U A121G	-6.23
C3A A74U G120U U125A	-0.657
C3G U106C C123G	-1.58

Variant	polymerase ribozyme fitness (log ratio)
C3G C73G	-3.19
A2U G23U G60U C79U G110A	-6
C3A G71U C115G A118U	-4.97
C3G C70G	-4.26
C3A G69A	-3.74
C3U C11U U87A C124U	0.336
A2U A37C G44A C53A G63C C124A	-3.55
A2U G17A C28U A43U G61C G110A	-6.04
C3A C89U	-1.82
C3U A84U	-0.78
A2U C20U G63C C89A A111C C123A	-4.79
C3A G17U A18C A24U U32G C40G G42U A43G U109C	-6.6
A2G G58A U106A G122U C123U	0.431
C3U C4A G51C C53A G71U A103G C114U	-5.71
C3U C56A G69A C72A C101U U112A C123G	-5.58
C3U C20G	-3.47
C3A C20G A119U A121U U132C	-3.91
A2C C40G	-2.5
C3U A18U C82A G120C	-1.8
A2G G19U C62U C86U	-3.94
C3U A27C U130C	-2.28

Variant	polymerase ribozyme fitness (log ratio)
C3A C34U C53A C89A C123G	-5.9
C3U C56A A68G G120C	-3.32
C3U A6C C13A	-3.09
A2C G63U C115U	-4.82
A2C C13U G110A	-2.59
A2C A50U U59A A111C A121C U133A G135C	-1.62
C3U C62G	-2.24
A2U C88G	-3.37
C3G C94G C114U G128C	-2.66
C3A C13G C28A G51U G71C G110U	-6.35
A2U C13G C62U	-2.85
C3A C8A C11G C22A G45U C88G	-5.16
C3A G61A C79U	-1.27
C3U C11G U21G G113U G127A	-2.58
C3A G48A C86U A121G G127C U131G U132A	-0.349
C3A C8A C53G C101A	-1.64
A2C C72A G110U	-4.2
A2U C70G	-5.04
C3G C12G G120A G128U	0.37
A2U A37U C72A U78A C124G	-0.247
